Data taken from the DeepSol protein solubility set.

Assay: soluble on expression in E. coli; label from the status in PepcDB or PDB records

| Sequence | soluble on expression in E. coli |
| --- | --- |
| MKKIGIIGAGGIARAHATALSTIKNAELVGVYDINQQNAESFVKTFGGKSFENVDELIDASEGLIVASPNFCHKEHALQALGKHKHVLCEKPMAISLEEASIMKDTAERLSVRASMGFNYRYLSYVNILKSLIINNELGNILSIKVHFKKNSALRRKKFTWRDDANSKKTSGSLGDLGIHLIDMVWYLFESDFITESVRAKMNTNVKTKEDKQVLVDDYAEIYGQLRNKVFVNIITSKCSVPEDCGFSIEVVGHKKEFKYHTGNPHVYKLIDGLNVVDCPVPQSLLNDPPNEFYGWADSFRSELINWIASTQNDWVEIPSFSDGFRSQEVLEMFFEKDSNSQPMSVSAVNLEHHHHHH | not soluble |
| MKKIIGLVGTNSEQSTNRQLLQFMQHYFAQEADIELVEIVDFPMFNKPEDKVLPEIVKTVAEKIEAADGVIISTPEYDHAVPASLMNALSWLSYGIFPFVDKPVMITGASYGTLGSSRAQAHLRQILDAPELKARIMPSSEFLLAHSLQAFDENNALKDSEQIDKLAGLFADFCVFIEITEQLKHAHAQNKKEAENFSWETI | not soluble |
| MKKIPQISDAELEVMKVIWKHSSINTNEVIKELSKTSTWSPKTIQTMLLRLIKKGALNHHKEGRVFVYTPNIDESDYIEVKS | soluble |
| MKKLAAIISATLLFASSAAVAEVYVGGKVGKSWLDDACLAGQSCEDDDQVVGAFLGYQANKWLSLEAGYDYLGKFTAAGLNDEKVQAVTLAPKLSIPLTEGIALYGKVGGAYVDYGSKDDYSYLGAAGLEFNTNHNVTMRLEYQNLTDINNDIVRARAETATLGIAYKFGGSEEPAPVVEQRPAEPAPVAAPVEKVAVTKTFTFQHLDSSTFATASAELKPATVQKLDKIVGYLNQYPQAKVEVVGHTDSTGSEAYNQKLSERRAQAVAKALEAQGIDASRISAKGLGESSPIASNATAEGREKNRRVELVIPEFQYQVTE | not soluble |
| MKKLAIVIPAYKVDFFETVLFSLAQQTCKDFTVYIGEDCSRDDFKSLIEQYSKQLDIVYRRFEVNFGGHDLVAQWNRCIQLTQNEPWLWLFSDDDIMGPRCVEYFFNTIAIDNGAFDIYHFDVKIVDCENQIVRIPTVYPSVIDSETFYRRKASARLDSFVVEYIFLRDIYNCTGGFQHFDLAWGSDIATWVKIGADKGIKTISGDYVYWRKSKKNITPNMDNKMVLRKLTADIEFTHWINEFFHKSSVYRFTKYAFFRLVVHYSQAISKSQIRLLLDKAVGKNIISFNDAFIINWTYRFIQLAKRVKDVLYFLEHHHHHH | soluble |
| MKKLLFFTLLLFGVLSVRSLADGCNAQVCMCPNGGYVTTGQYCSTSSGESWIITPIIGTVAIDPATGKWASISNTKDRKEAKNDVLERCGSDCKVFMVDSKRCVGVAYSKSDKIIGSDSATDNFGGIGYNTRVERSNEKALKKCEKNGGKDCKIIANVCAVEGTTKY | not soluble |
| MKKLTFEIRSPAHQQNAIHAVQQILPDPTKPIVVTIQERNRSLDQNRKLWACLGDVSRQVEWHGRWLDAESWKCVFTAALKQQDVVPNLAGNGFVVIGQSTSRMRVGEFAELLELIQAFGTERGVKWSDEARLALEWKARWGDRAA | soluble |
| MKKMGGKIFAVRVTQGQEENTARLIYSKVKTYNLPIYAILAPSKVKGYIFIEAPEKSVVDEAIRGIRHARGVLPGEIPFSEIEHFLEEKPAVSGLEPGDIVELISGPFKGEKAKVVRVDESKDEIVVELIGAIVPIPVTVRGEYVRLISKRQKEE | soluble |
| MKKPIHSHRAATLYHFAFCLHNLRRSPNSPFTVRNRDEQKDEKPYENKGKINKFFLDLTYFQLPYPVSERAPLRLRAKIETREKINFKIRASSSPAVLVNFPFPRHSLLVSLSPAHETNNAVDGEALHPRAQRA | not soluble |
| MKKQLCMIALVGATAFGTTGTSWSLDGPPPPEPPPMGKGQEHFLERMASVLKLTDAQQAQIEALISTDAEQNAPLHRQLAENERALREATTAASLDEATVRALAATKGNLMTEMIVSRAKLRNAINAILTAEQRELADRLDPLKYGPPRPRPDRPGMELEHHHHHH | soluble |
| MKKQLDQLTAYTPGLSPESLKKQYGIRGELHKLASNENVYGPSPKVKTAIQSHLDELYYYPESGSPKLREAISQQLNVDASRILFGAGLDEVILMISRAVLSPGDKIITSESTFGQYYHNAIVESADVIQVPLKDGGFDLDGMLQQIDNKTSLIWLCNPNNPTGTYFSHDELFNFLKRVPSDIPVLIDEAYVEFVTADDFPDTLKLQEDFDNAFLLRTFSKAYGLAGLRVGYVIASEDAIEKWNIIRPPFNVTRISEYAAIAALEDQEYLKEVTQKNSFERDKFYQIPQSQHFLPSQANFVFVKTSRSQALYDALLNVGCITRLFPNGVRITIGLPEQNNKMIEVLKHFEY | not soluble |
| MKKQLLIVDGYNMIGAWPELVQLKKQERLEDARELLLSRLSNYAKYEGLEIIVVFDAQLVPGIQQTYKKYLLTVVFTKEDETADSYIERLAGEKNDRLTQVTVATSDLAEQWVVFSQGALRTSANELYKAVQKTEKTIAIHATDIHFQQFRRNSPWNVEQLSKLSEKLEELSQKKD | not soluble |
| MKKRQSCRSFDYSKPVSKEDLISILEAGRLSPSACNSQPYEVFVAQGEKAKIIADAKMGSFNKFIDDCNTFLVIAEDNYSLPAKIGSLIKKVDFKAIDIGILTANLVNAASALNLETCILGVFDEKRIQKLIERKKRIRLVIALGYPKEGYPLREKTRKDFDDNMHFLA | not soluble |
| MKKRYQTLNEHYRQLFGAKMFKVPIDAGFDCPNRDGTVAHGGCTFCTVSGSGDAIVAPDAPIKEQFYKEIDFMHRKWPDVNRYLVYFQNFTNTHDTVDVIRDRYEQAINEPGVVGINIGTRPDCLPDDTIAYLAELSERMHVTVELGLQTTYEETSRLINRAHSYDLYKETVRRLRHYPNINIVSHLINGLPKETHDMMLENVRRCVTDNDIQGIKLHLLHLMTNTRMQRDYHEGRLKLLSQKDYVSIICDQLEIIPKHIVIHRITGDAPRDMLIGPMWSLNKWEVLNAIDKEMERRGSFQGCKVD | not soluble |
| MKKTLPKTEAPSSVGNGSDSPIEFDAIIRQVPDMDAAYVEIPFDVKTVYGKGRVRVNATFDGYPYTGYIVRMGLPCHILGLRQDIRRAIGKQPGDSVYVTLLPL | soluble |
| MKKVAIVGLGWLGMPLAMSLSARGWQVTGSKTTQDGVEAARMSGIDSYLLRMEPELVCDSDDLDALMDADALVITLPARRSGPGDEFYLQAVQELVDSALAHRIPRIIFTSSTSVYGDAQGTVKETTPRNPVTNSGRVLEELEDWLHNLPGTSVDILRLAGLVGPGRHPGRFFAGKTAPDGEHGVNLVHLEDVIGAITLLLQAPKGGHIYNICAPAHPARNVFYPQMARLLGLEPPQFRNSLDSGKGKIIDGSRICNELGFEYQYPDPLVMPLELEHHHHHH | not soluble |
| MKKVGVVIPIYNVEKYLKECLDSVINQTYTNLEIILVNDGSTDENSLNIAKEYTLKDKRIILFDKKNGGLSSARNVGIEYFSGEYETQYIEKENELNVFKIIGDNPQNIYKIYKYKNALASDKLEISKIDYIIFLDSDNYWELNCIEECVVRMQNVDVLWFDHACIYDDGIEDKGQKTRMNVFNFTQECTITPRDYAKQAIKVGSRDISFSWGGMIDFSFLKQLKLKFINKIINEDIHFGMVLFASADSIYILPKRLYLCRLRANSISNHDKKVTKANVSEYFKDLYEFFGENAKEAKNYLKAASRMITALELIEFFKDQKNENSQAIKEAFLPFYVKKALMIKKFKKDPLNLKEKLPIIKPFIQTKIPYDLWKIWQKIKGILDKINFAK | soluble |
| MKKVIKKYFFLALAIIMYSCNEDEKYDILERYTPETITSDEIAPVLNLQAQYMDSNSEIVLVTWMNPEDDFLSKVEISCCSANDNLLGEPVLLDAVSTKVGSYQTSLSVEERGYVKIVAINEKGVRSEARTAEILSSQQDFVYRADCLMSSVIELFFGGRYNAWNENYPNATGPYWDGIAAVWGQGAAYSGFVTMYKVTKETNNEKLRAKYAEKEETFLNSIDIFLNNGSGRKSFAYGTYIGPNDERYYDDNVWIGIEMANLYELTGNEVYLQHANTVWNFILEGIDDVTGGGVYWKEGAVSKHTCSTAPAAVMALKLYQLSKNESYLEIAKSLYSYCKDVLQDPNDYLFYDNVRLSDPSDKNSELKVSKDKFTYNSGQPMLAAAMLYRITKEEQFLKDAQNIAQSIYKKWFKNYHSSILDRDIMILSDPNTWFNAVMFRGFVELYKIDKNDVYVKAVKNTMEHAWQSNCRNRLTNLMSDDYAGDKKEGKWNIKTQGAFVEIFSLIGELEQLGCFQELEHHHHHH | not soluble |
| MKKVNLAVVGATGMVGRTFIKVLEERNLPIDNIYFFSSSRSAGSTVTFNNKEYVVEELTETSFDRGIDIALFSAGASVSEKFAPIAASKGCVVVDNSSCWRMNEKVPLVVPEVNPQDISCHQGIIANPNCSTIQAVVVLKPLHDKYKIKRIVYSTYQAVSGAGHNGYMDLENGLKGEPPKKFPHPIAGNCLPHIDSFLPNGYTKEEMKMVNETRKILGDYSIRITATTVRVPVFNGHSESINVEFEKQFDLEELKEVLRNAPGVVVQDDVANNVYPMPIYASGRDETFVGRIRRDESVESGVNLWVVADNIRKGAATNAVQIAEELIKMWNK | soluble |
| MKKVYFATKADVERLHSFFGQANKKDDKINELYAQFMILEEAEEIRAVIGYEQSGEDVLIRSCLFTPHVDKQTFLYFFEMFLQYMKEKSVQQLYLLTNHPQSVPIFQFFDFFTIEKDEVPEGIQQLEHFCKNIKEQNAIILNCQLFTKLSTD | not soluble |
| MKKVYFNHDGGVDDLVSLFLLLQMDNVELTGVSVIPADCYLEPAMSASRKIIDRFGKNTIEVAASNSRGKNPFPKDWRMHAFYVDALPILNESGKVVTHVAAKPAHHHLIETLLQTEEKTTLLFTGPLTDLARALYEAPIIENKIKRLVWMGGTFRTAGNVHEPEHDGTAEWNSFWDPEAVARVWEANIEIDLITLESTNQVPLTIDIREQWAKERKYIGIDFLGQCYAIVPPLVHFAKNSTYYLWDVLTAAFVGKADLAKVQTINSIVHTYGPSQGRTVETDDGRPVHVVYDVNHDRFFDYITRLAKKVST | soluble |
| MKKVYLFKLKFNTPYGLRVGGPKEDISTLTPLKIGQHYVIPSSSWKGIFRRTTEVLITNPNHFRGHEGEDVTDDGSLDELLEAKGLENKNDENVRKERKRFIAMWNCPVERLYGSEYFASAVTFSDTLIDAEINQRTHVVIDRKTRKSEEKHLYSEQIVNVNSVRVKVIVRDRIDDWIKTLKFLSEFGTFVGGGKSRGIGYAVLDWKESEYAEVDGLTRKIMFKPLDELKL | soluble |
| MKKWLPAFLFLSLSGCNDALAANQSTMFYSFNDNIYRPQLSVKVTDIVQFIVDINSASSTATLSYVACNGFTWTHGLYWSEYFAWLVVPKHVSYNGYNIYLELQSRGSFSLDAEDNDNYYLTKGFAWDEANTSGQTCFNIGEKRSLAWSFGGVTLNARLPVDLPKGDYTFPVKFLRGIQRNNYDYIGGRYKIPSSLMKTFPFNGTLNFSIKNTGGCRPSAQSLEINHGDLSINSANNHYAAQTLSVSCDVPTNIRFFLLSNTNPAYSHGQQFSVGLGHGWDSIISINGVDTGETTMRWYRAGTQNLTTGSRLYGESSKIQPGVLSGSATLLMILP | soluble |
| MKKYFLGDQPTTLDASAFGFLINTIACPIESPLKEYGLSKENLGDYIDRIKMQYYPDLQLEHHHHHH | not soluble |
| MKLDKIDNKNRRIRKKLFLGEFAILGFEISCETDINDFDRYDAFVDDFIDYIDTLGLCFGGGGLELFEGFLCSTERYGSATEEQKAQVVAWLEARPEVKSAKAGDLLDANYL | soluble |
